Our source for the IC50, neutralization of BG505.T332N pseudovirus, TZM-bl cells values is patent publication US20140212458A1.

For the experiment, the target named is BG505.T332N Env on Env-pseudotyped virus (HIV-1 BG505 (clade A)).

With CD4-IgG2 (Fc fusion), the IC50, neutralization of BG505.T332N pseudovirus, TZM-bl cells is 0.433 µg/mL.
